Data from patent US20040001835A1, “Prevention or treatment of cancer using integrin alphavbeta3 antagonists in combination with other agents” (MedImmune, Inc., priority 2002, published 2004).
“Also recorded” adds a separate entry of the source.

Legend:
Format in all cases: binding
[1] = biological target: T1, human β3 Mutant A + C (E171Q D179T T182S) (Homo sapiens, UniProt P05106, D205T/E197Q/T208S); assay: FACS analysis of HEK293 transfectants, human β3 containing rat residues; details: flow cytometry
T1 construct: expressed in transfected cells; host or cells: HEK293
Description: FIG. 4. Binding of Integrin αvβ3 specific antibodies to human β3 containing rat residues.
Sequence comparison of residues 164 to 202 of β3 integrins from different species and design of mutations. To further characterize the binding epitope of Vitaxin®, the gene encoding β3 was cloned and sequenced from hamster cDNA. The amino acids in the region previously proposed to contain the LM609 binding epitope are shown above (dashed lines depict conserved residues). To determine which residues in the human sequence were essential for antibody binding, the amino acids shown in color were mutated to the corresponding rat residues. The resulting genes were transfected to HEK293 cells which express endogenous human αv. Resulting cell lines were analyzed by flow cytometry for antibody binding.
This protocol is used to assess the surface expression of integrins in HEK-293 cells transfected with various Integrin subunits. Primary antibodies bound to the integrins are detected by fluorochrome-conjugated secondary antibodies and analyzed by flow cytometry.
1. Wash adherent cells twice with 5 ml of PBS.
2. Add 1.5 ml of trypsin solution or cell dissociation solution, incubate at 37_C. foir 2 min.
3. Add 3 ml of culture medium or FACs buffer to the plate and loosen cells from the plate by pipetting. Count cells. Resuspend cells in FACs buffer at 5×10^6 per ml.
4. Transfer an aliquot of 5×10^5 cells (100 μl) into microfuge tubes containing 10 μg mouse IgG or human IgG. Incubate cells for 20 min at RT to block IgG receptor sites. Note: use mouse IgG for blocking when using human primary mAb; use human IgG for blocking when using mouse primary mAb.
5. Add […] of Vitaxin®, or other primary mAb, and incubate for 20 min at RT.
6. Wash twice with 500 μl of FACS buffer, spinning cells at 1500 rpm for 5 minutes.
7. Add 0.5 mg of goat anti-human IgG Alexa 488, or other secondary antibodies, and incubate for 20 min at RT.
8. Wash twice with 500 μl FACS buffer, spinning cells at 1500 rpm for 5 minutes.
9. Resuspend in 500 μl buffer for FACS analysis.
10. Use unstained cells for background. For negative control, use secondary antibody alone.

[2] = biological target: T2, αvβ3 expressed on placenta (placental trophoblasts) (Mus musculus, UniProt O54890); assay: Immunohistochemical staining of placental trophoblasts; details: frozen thin sections, antibody 10 μg/ml
T2 construct: from tissue; host or cells: placenta (frozen sections)
T2 sequence (O54890 26-787): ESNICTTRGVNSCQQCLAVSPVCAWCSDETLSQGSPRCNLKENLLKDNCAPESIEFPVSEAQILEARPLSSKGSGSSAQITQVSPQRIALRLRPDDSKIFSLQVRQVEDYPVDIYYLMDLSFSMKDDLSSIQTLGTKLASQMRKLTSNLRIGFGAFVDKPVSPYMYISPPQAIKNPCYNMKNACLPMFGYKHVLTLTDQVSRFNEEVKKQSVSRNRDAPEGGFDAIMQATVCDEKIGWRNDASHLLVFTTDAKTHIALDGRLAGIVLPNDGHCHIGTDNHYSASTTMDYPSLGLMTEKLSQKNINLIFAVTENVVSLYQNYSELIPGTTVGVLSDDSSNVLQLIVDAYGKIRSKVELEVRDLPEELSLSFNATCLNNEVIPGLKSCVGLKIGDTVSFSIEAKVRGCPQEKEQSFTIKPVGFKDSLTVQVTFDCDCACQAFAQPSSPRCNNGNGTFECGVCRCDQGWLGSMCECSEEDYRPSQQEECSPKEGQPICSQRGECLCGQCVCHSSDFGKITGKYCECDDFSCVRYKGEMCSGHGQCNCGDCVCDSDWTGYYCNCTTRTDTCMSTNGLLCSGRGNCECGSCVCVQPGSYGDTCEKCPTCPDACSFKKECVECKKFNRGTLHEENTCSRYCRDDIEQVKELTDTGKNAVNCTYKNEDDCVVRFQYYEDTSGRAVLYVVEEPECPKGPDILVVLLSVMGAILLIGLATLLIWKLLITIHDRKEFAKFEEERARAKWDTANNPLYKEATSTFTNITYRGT
T2 sequence (P43406 31-885 partner limits assumed): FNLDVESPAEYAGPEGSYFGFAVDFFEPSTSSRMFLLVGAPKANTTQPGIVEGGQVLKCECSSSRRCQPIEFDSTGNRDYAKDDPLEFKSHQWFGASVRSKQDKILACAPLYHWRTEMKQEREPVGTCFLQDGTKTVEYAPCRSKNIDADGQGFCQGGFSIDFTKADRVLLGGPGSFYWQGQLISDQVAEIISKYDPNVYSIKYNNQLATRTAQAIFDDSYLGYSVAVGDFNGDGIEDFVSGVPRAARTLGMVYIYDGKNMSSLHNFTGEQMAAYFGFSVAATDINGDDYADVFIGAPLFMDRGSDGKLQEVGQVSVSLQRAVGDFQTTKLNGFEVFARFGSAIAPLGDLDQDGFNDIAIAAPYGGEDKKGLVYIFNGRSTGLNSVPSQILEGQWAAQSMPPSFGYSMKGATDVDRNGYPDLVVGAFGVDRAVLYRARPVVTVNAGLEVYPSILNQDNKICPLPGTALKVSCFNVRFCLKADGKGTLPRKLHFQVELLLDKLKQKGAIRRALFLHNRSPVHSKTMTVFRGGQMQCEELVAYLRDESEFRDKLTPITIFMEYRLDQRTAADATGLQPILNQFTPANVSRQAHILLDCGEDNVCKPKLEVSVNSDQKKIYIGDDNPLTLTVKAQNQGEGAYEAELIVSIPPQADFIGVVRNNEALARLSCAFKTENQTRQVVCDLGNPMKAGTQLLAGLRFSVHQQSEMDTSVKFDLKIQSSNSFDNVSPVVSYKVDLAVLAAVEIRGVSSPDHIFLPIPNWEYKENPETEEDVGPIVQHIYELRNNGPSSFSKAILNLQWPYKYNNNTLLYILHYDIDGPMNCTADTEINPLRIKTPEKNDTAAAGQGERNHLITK
T2 sequence (P43406 887-1044 partner limits assumed): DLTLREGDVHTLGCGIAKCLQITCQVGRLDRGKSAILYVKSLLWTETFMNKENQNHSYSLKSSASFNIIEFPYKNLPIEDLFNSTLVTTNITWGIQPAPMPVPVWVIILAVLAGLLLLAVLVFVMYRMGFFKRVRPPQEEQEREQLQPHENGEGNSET
Protocol: (§1) Table 3. Immunohistochemical staining of placental trophoblasts. Placental tissue, a rich source of αvβ3, was collected either immediately after parturition or from freshly-sacrificed, late-term pregnant animals. Tissue fragments, approximately 1 cm^3, were frozen in OCT, and thin sections were stained with monoclonal antibodies (10 μg/ml) at Sierra Biomedical (Sparks, Nev.). Vitaxin® recognized αvβ3 expressed on human, monkey, guinea pig, hamster and rabbit placenta, while […] with human and monkey αvβ3. […] ND, not done.

[3] = test system: αvβ3 expressed on placenta (placental trophoblasts); assay: as above; details: frozen thin sections, antibody 10 μg/ml
Protocol: as §1

T1 sequence (P05106 27-788 E197Q/D205T/T208S): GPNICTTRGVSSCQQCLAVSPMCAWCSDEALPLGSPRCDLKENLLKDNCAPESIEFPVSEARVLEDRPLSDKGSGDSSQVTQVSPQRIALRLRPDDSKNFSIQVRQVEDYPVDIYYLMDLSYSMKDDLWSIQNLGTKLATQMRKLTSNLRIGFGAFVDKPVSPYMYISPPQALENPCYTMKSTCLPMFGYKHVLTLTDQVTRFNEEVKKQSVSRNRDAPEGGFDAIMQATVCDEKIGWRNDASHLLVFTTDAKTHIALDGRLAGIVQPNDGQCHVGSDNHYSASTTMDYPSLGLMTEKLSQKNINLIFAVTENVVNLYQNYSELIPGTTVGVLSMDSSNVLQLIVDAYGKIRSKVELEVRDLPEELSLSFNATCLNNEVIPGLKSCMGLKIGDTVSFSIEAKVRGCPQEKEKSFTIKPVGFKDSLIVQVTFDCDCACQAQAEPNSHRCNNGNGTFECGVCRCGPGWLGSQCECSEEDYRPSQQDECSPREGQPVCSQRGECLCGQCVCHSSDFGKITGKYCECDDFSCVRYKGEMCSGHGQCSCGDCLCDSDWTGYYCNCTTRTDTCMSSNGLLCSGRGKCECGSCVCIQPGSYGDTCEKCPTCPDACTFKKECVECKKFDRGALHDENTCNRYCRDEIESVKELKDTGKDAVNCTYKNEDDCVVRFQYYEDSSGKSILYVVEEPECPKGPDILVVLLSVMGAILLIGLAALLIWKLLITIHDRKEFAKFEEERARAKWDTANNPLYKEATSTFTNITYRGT
T1 sequence (P06756 31-889 partner limits assumed): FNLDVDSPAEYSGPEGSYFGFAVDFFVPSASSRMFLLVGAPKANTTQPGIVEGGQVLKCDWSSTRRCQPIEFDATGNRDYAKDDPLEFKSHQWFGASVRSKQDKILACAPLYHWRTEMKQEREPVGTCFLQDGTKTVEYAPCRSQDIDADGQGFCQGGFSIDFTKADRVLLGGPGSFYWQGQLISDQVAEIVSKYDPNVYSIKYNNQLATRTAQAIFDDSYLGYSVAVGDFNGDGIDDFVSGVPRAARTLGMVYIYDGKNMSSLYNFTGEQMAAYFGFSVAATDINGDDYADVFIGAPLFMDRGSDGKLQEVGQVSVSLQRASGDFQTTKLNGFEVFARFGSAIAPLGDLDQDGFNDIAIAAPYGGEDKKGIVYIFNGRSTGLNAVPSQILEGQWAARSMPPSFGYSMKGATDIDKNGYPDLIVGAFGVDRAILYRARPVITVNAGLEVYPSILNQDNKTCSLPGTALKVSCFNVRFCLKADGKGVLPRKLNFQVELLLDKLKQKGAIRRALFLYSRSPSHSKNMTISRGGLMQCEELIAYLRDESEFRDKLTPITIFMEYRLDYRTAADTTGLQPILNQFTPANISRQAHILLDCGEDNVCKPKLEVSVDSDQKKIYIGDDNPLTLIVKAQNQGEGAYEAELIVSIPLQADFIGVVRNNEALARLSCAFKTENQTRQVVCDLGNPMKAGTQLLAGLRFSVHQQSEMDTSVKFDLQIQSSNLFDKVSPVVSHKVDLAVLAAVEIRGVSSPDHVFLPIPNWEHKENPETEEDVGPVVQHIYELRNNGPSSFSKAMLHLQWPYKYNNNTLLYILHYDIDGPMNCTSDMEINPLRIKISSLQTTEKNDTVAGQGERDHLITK
T1 sequence (P06756 891-1048 partner limits assumed): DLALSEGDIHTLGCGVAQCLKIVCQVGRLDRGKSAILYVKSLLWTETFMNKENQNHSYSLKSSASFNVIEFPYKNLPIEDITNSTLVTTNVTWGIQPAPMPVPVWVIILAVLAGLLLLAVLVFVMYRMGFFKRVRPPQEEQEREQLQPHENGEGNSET

B1: Vitaxin®: humanized blocking monoclonal antibody that binds Integrin αVβ3 (MEDI-522, MedImmune); humanized and optimized version of LM609 (antibody, chains of the INN, looked up, V domains shown)
VH: QVQLVESGGGVVQPGRSLRLSCAASGFTFSSYDMSWVRQAPGKGLEWVAKVSSGGGSTYYLDTVQGRFTISRDNSKNTLYLQMNSLRAEDTAVYYCARHLHGSFASWGQGTTVTVSS
VL: EIVLTQSPATLSLSPGERATLSCQASQSISNFLHWYQQRPGQAPRLLIRYRSQSISGIPARFSGSGSGTDFTLTISSLEPEDFAVYYCQQSGSWPLTFGGGTKVEIK
effect of Mutations A and C combined on antibody binding [1]: disrupts binding; also recorded: eliminated binding | Staining of Placental Trophoblasts [2]: Negative | Staining of Placental Trophoblasts ([3]; Cynomolgus monkey placenta): recognized | Staining of Placental Trophoblasts ([3]; Guinea pig placenta): recognized | Staining of Placental Trophoblasts ([3]; Hamster placenta): recognized | Staining of Placental Trophoblasts ([3]; Rabbit placenta): recognized
